In this experiment the target is SARS-CoV-2 main protease 3CLpro (SARS-CoV-2). Kind of experiment: crystal structure.

As for “SARS-CoV-2 main protease 3CLpro (enzyme)”, the stoichiometry N is 2.
